From US20140193333A1 (OXFORD BIOTHERAPEUTICS, published 2014)

Biological target: T1, ADP-ribosyl cyclase 2 (BST1), human, cell-surface (human, UniProt Q10588 33-293)
T1 construct: Endogenous BST1 on A549, H226 and U937 cells and on blood cells of AML patients; also called CD157; Bone marrow stromal antigen 1
T1 sequence: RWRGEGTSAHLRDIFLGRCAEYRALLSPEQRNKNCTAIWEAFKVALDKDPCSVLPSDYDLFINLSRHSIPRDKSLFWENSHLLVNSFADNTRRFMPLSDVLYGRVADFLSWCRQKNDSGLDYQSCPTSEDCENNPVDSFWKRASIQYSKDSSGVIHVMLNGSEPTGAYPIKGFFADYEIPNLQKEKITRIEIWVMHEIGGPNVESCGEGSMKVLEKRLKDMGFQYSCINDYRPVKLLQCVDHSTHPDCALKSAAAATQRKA
Experiment: flow cytometry on BST1-expressing A549 and H226 cells
Experimental: The specificity of antibodies against the BST1 selected in Example 6 was also tested by flow cytometry. To test the ability of the antibodies to bind to the cell surface BST1 protein, the antibodies were incubated with the BST1-expressing cells, H226 (human lung squamous carcinoma) and A549 (human lung adenocarinoma). Cells were washed in FACS buffer (DPBS, 2% FBS), centrifuged and resuspended in 100 μl of the diluted primary BST1 antibody (also diluted in FACS buffer). The antibody-A549 complex and antibody-H226 complex were incubated on ice for 60 min and then washed twice with FACS buffer as described above. The cell-antibody pellet was resuspended in 100 μl of the diluted secondary antibody (also diluted in FACS buffer) and incubated on ice for 60 min on ice. The pellet was washed as before and resuspended in 200 μl FACS buffer. The samples were loaded onto the BD FACScanto II flow sytometer and the data analyzed using the BD FACSdiva software. The binding of BST1_[…] and BST1_A2 to BST1 expressed on A549 and H226 cells were analysed using flow cytometry.

B1: BST1_A1 anti-BST1 monoclonal antibody (Fab, V domains shown)
VH: QVKLQQSGAELVRPGSSVKISCKASGYAFSNSWINWVKQRPGQGLEWIGQIYPGDYDTNYNGKFKGKATLTADYSSSTAYMQLNSLTSEDSAVYFCARGGSIYYGNLGFFDVWGAGTTVTVSS
VL: EMVLTQSPAIMSTSLGERVTMTCTASSRVSSSYLHWYQQKPGSSPKLWIYSTSNLASGVPARFSGSGSGTSYSLTISSMEAEDAATYYCHQYHRSPYTFGGGTKLEIKR
B1: binds.
